In article PMC5334656, “McMYB12 Transcription Factors Co-regulate Proanthocyanidin and Anthocyanin Biosynthesis in Malus Crabapple”:

T1: McMYB12b (Malus crabapple, UniProt X2EZI4 1-374)
T1 sequence: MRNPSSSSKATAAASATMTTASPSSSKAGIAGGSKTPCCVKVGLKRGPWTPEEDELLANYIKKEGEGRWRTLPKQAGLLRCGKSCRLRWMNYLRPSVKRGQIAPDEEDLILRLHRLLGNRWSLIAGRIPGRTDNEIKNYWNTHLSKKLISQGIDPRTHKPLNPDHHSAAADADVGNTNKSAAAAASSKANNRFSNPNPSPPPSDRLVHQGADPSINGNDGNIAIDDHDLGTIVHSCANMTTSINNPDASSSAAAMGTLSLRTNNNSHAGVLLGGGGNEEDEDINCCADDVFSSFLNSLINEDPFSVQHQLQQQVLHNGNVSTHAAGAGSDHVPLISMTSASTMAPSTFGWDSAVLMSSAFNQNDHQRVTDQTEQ

T2: McMYB12a (Malus crabapple, UniProt X2EXK4 1-364)
T2 sequence: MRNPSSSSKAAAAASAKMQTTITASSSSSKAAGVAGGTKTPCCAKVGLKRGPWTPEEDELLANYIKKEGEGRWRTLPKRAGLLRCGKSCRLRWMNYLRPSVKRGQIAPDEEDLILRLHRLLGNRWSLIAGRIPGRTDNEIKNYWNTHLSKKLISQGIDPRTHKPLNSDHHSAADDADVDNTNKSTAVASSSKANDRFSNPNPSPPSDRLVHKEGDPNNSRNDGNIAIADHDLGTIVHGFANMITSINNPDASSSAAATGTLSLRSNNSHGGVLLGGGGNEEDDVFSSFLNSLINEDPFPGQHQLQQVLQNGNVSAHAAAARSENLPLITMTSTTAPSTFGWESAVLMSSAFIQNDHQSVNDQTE

B1: proMcLAR1 probe (dsDNA)
DNA 1: GGACAGAAATTATCCATACACCCTTTTCGTTAATGTTGCAAACTGAGT
DNA 2: ACTCAGTTTGCAACATTAACGAAAAGGGTGTATGGATAATTTCTGTCC
B2: proMcANR1 probe (dsDNA)
DNA 1: ATTCTGAGTACTGTAACCTAAGTTGAAGTTGAATAATTGACGTCGTC
DNA 2: GACGACGTCAATTATTCAACTTCAACTTAGGTTACAGTACTCAGAAT
B3: proMcANR2 probe (dsDNA)
DNA 1: ATTGGGAGATATGTGCTCGTTTTAGAGTGCTTTTAAAATAACTGAAAAC
DNA 2: GTTTTCAGTTATTTTAAAAGCACTCTAAAACGAGCACATATCTCCCAAT
B4: proMcLAR2 probe (dsDNA)
DNA 1: AAGTATGGTATAAACACAGACTAAGCCTCATTATCATATCCATATCAT
DNA 2: ATGATATGGATATGATAATGAGGCTTAGTCTGTGTTTATACCATACTT
B5: proMcCHS probe (dsDNA)
DNA 1: GCAACTCCTCCCAACTGTGTGGATCAAGCCACATACCCCGACTATTACT
DNA 2: AGTAATAGTCGGGGTATGTGGCTTGATCCACACAGTTGGGAGGAGTTGC
B6: proMcANS probe (dsDNA)
DNA 1: AGATCATTGCTCCAACTGGCTAAAATTAAGTGACCATTACTATAAT
DNA 2: ATTATAGTAATGGTCACTTAATTTTAGCCAGTTGGAGCAATGATCT

How the values were obtained:
McMYB12b = target: T1, McMYB12b; test: EMSA; LightShift Chemiluminescent EMSA Kit per manufacturer; 10 ug protein, 25 pmol biotin probe, 10- to 1000-fold competitor; buffer, salt, pH and temperature not stated; settings: protein: recombinant; label: biotin; blunt
McMYB12a = target: T2, McMYB12a; test: as above; settings: protein: recombinant; label: biotin; blunt

Binder | binding result (McMYB12b) | binding result (McMYB12a)
B1 | binds | no binding
B2 | binds | binds
B3 | binds | binds
B4 | binds | binds
B5 |  | binds
B6 | binds | binds
